Source: patent US7135457B1, “Random peptides that bind to gastro-intestinal tract (GIT) transport receptors and related methods” (Cytogen Corporation, priority 1997, dated 2006)

Experiments:
[1] = Method: In particular, phages selected in vitro to each receptor or binding site located in the GIT were amplified in E. coli, PEG-precipitated, resuspended in TBS and the titer of each phage sample was determined by plaquing in E. coli as described above. […] Using the in situ loop model described above, 0.5 ml of preselected phage library solution was injected into the tied-off portion of the duodenum/jejunum. Blood was collected into heparinized tubes from the portal vein at 0, 15, 30, 45 and 60 minutes. A blood sample was taken from the systemic circulation at the end of the experiment. Similarly, the portion of the duodenum/jejunum used for phage injection was taken at the end of the experiment.
Thirty microliters of the collected portal blood (neat and 10^−2, 10^−4, 10^−6 dilutions) was added to 30 μl E. coli K91Kan cells (overnight culture) and incubated at 37° C. for 10 min. Subsequently, 3 ml of top agarose was added and the samples were plated for plaques. One hundred microliters of the collected portal blood was added to 100 μl of E. coli K91Kan. Five milliliters of LB medium was then added and the samples were incubated at 37° C. overnight in a rotating microbial incubator. The E. coli was removed by centrifugation and the amplified phage supernatant samples were either titered directly or were PEG-precipitated, resuspended in TBS and titered. Following titration of the amplified phage, samples containing phage from each set of animals were combined, adjusting the titer of each sample to the same titer, and were plated for plaques on LB agar plates (22 cm^2 square plates). Either 12,000 or 24,000 phage were plated for plaques.
Thirty microliters of the collected systemic blood (neat and 10^−2, 10^−4, 10^−6 dilutions) was added to E. coli K91Kan cells, incubated at 37° C. for 10 min. Three ml of top agarose was then added and the samples were plated for plaques. One hundred microliters of the collected systemic blood was added to 100 μl of E. coli K91Kan, incubated at 37° C. for 10 min. Five milliliters of LB medium was then added and the samples were incubated at 37° C. overnight in a rotating microbial incubator. The E. coli was removed by centrifugation and the amplified phage supernatant samples were either titered directly or were PEG-precipitated, resuspended in TBS and titered. Following titration of the amplified phage, samples containing phage from each set of animals were combined, adjusting the titer of each sample to the same titer, and were plated for plaques on LB agar plates (22 cm^2 square plates). Either 12,000 or 24,000 phage were plated for plaques. The intestinal tissue portion used in each closed loop was excised. […] Alternatively, the tissue (in PBS supplemented with protease inhibitors) was homogenized in an Ultra Thorex homogenizer, washed 3 times in PBS containing protease inhibitors and resuspended in PBS containing protease inhibitors (Int-G samples). In each case, serial dilutions (neat and 10^−2, 10^−4, 10^−6 dilutions) of the tissue homogenate was titered in E. coli.
The phage amplified from the portal blood, systemic blood and intestinal tissue was plated for plaques. […] The filters were air-dried, and the DNA was cross-linked to the filter (UV crosslinking: 2 min, high setting). The filters were incubated in pre-hybridization buffer (6×SSC, 5×Denhardt's solution, 0.1% SDS, 20 μg/ml yeast tRNA) at 40° C.-45° C. for at least 60 min.
Synthetic oligonucleotides, (22-mers), complimentary to regions coding for the receptor or binding sites used to create the preselected phage library, were synthesized (see Table 14 below).
The oligonucleotides (5 pmol) were 5′ end labelled with ^32P-ATP and T4 polynucleotide kinase and approximately 2.5 pmol of labelled oligonucleotide was used in hybridization studies. […] The filters were air-dried and exposed for autoradiography for 15 hours, 24 hours or 72 hours.
Hybridization data for pools from each receptor group of rats was compiled.

hPEPT1 = molecular target: T1, hPEPT1 (Homo sapiens, UniProt P46059); assay: Receptor ELISA of phage on hPEPT1; assay type: binding; details: Table 4; ratio
T1 construct: 391-571; made in house
T1 sequence (P46059 391-571): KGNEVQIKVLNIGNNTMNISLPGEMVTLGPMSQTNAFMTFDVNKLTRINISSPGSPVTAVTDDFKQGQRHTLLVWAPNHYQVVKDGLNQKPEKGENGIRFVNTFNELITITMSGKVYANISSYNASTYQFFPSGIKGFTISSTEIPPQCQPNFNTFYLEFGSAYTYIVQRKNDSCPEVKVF
Method: The plates were blocked for one hour with 0.5% BSA-PBS. After clarification, the amplified phage were diluted 1:100 in 1% BSA plus 0.05% Tween 20 in PBS and added to the plates. Following incubation of the plates on a rotator for 1 to 2 hours, the plates were washed 5 times with 1% BSA plus 0.05% Tween 20 in PBS. […] After the plates were washed 5 times, as described above, TMB substrate was added to the wells. The plates were read at 650 nm absorbance.

[2] = Drug potency, peptide loading and size of coacervated particles; assay type: physicochemical; details: formulation 1 particles (coacervation), blend
BSA = BSA (Bos taurus, UniProt P02769); assay: Phage ELISA on BSA (background control protein); assay type: binding; details: Table 4
Method: 96 well plates were coated overnight with GIT receptor, BSA and, optionally, IDE (insulin degrading enzyme, an irrelevant His-fusion protein) or hTF. The plates were blocked for one hour with 0.5% BSA-PBS. After clarification, the amplified phage were diluted 1:100 in 1% BSA plus 0.05% Tween 20 in PBS and added to the plates. Following incubation of the plates on a rotator for 1 to 2 hours, the plates were washed 5 times with 1% BSA plus 0.05% Tween 20 in PBS. Dilute anti-M13-HRP conjugate (anti-M13 antibody linked to horse radish peroxidase (HRP)) was added to all the wells and the plate was incubated for one hour on a rotator. After the plates were washed 5 times, as described above, TMB substrate was added to the wells. The plates were read at 650 nm absorbance.

Sequence of BSA (P02769 25-607): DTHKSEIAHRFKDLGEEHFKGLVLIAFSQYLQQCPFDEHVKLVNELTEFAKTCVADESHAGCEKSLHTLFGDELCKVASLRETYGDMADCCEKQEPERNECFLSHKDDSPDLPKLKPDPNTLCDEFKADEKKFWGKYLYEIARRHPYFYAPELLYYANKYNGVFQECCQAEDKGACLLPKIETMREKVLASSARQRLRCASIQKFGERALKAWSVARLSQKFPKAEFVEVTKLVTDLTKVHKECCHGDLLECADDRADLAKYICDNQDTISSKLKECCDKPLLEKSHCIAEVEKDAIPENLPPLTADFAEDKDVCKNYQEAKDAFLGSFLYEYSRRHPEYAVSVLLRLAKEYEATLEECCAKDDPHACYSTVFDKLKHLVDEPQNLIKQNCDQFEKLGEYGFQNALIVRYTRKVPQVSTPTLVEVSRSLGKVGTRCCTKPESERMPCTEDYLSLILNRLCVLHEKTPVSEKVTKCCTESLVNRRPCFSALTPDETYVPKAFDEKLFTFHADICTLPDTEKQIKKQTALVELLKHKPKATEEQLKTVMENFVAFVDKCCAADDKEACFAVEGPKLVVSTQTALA

## RGSTGTAGGERSGVLNLHTRDNASGSGFKPWYPSNRGHK [Peptide 5PAX5]
[1]; text summary of HPT1 and hPEPT1 pools
  presence in the systemic circulation (in words): found in the systemic circulation
[1]; text summary of hSI, D2H, HPT1, hPEPT1 pools
  transport from the GIT closed loop into the portal circulation (in words): not found in the portal blood
[1]; text summary of the four pools
  presence in the intestine samples or fractions (in words): not found in the intestine samples
hPEPT1
  PEPT1/BSA: 4
[2]; coated with the named peptide
  Insulin (insulin potency): 52.7 mg/g
[2]; measured by fluorescence
  Peptide (level of peptide coated onto the particles): 2.83 µL/mg
BSA
  BSA: 0.036 OD
